The target in one experiment is SBP-tagged LeishIF4E-1. Nature of the experiment: pull-down.
The target of the next experiment is SBP-tagged LeishIF4E-4. The experiment in a line: pull-down.

As to LeishIF4A-1 (natural protein), the percent of the total protein in the elution fraction with SBP-tagged LeishIF4E-1 turned out to be 3%; with SBP-tagged LeishIF4E-4, 3.4%.

Turning to “Leishmania 4E-Interacting Protein (Leish4E-IP) (natural protein)”, in the experiment with SBP-tagged LeishIF4E-1, the percent of the total protein in the elution fraction came to 14%. In turn, LeishIF4G-3 (natural protein) showed a percent of the total protein in the elution fraction with SBP-tagged LeishIF4E-4 of 9%.
